Measured values from US10711041B2, “Lyophilisate containing a cyclic peptide of formula X1-[sequence]-X2” (priority 2013, dated 2020).
Bridges are numbered along the chain shown (N, C = ends). Where no end group is shown, it is not given here.

Target: T1, amilorid-sensitive Sodium Ion Channel (ENaC) (Homo sapiens, UniProt P37088)
T1 construct: Macroscopic Sodium Ion Currents were derived from human lung epithelian cells A549; endogenous in cells; host or cells: A549 human lung epithelial cells
T1 sequence (P37088 1-669): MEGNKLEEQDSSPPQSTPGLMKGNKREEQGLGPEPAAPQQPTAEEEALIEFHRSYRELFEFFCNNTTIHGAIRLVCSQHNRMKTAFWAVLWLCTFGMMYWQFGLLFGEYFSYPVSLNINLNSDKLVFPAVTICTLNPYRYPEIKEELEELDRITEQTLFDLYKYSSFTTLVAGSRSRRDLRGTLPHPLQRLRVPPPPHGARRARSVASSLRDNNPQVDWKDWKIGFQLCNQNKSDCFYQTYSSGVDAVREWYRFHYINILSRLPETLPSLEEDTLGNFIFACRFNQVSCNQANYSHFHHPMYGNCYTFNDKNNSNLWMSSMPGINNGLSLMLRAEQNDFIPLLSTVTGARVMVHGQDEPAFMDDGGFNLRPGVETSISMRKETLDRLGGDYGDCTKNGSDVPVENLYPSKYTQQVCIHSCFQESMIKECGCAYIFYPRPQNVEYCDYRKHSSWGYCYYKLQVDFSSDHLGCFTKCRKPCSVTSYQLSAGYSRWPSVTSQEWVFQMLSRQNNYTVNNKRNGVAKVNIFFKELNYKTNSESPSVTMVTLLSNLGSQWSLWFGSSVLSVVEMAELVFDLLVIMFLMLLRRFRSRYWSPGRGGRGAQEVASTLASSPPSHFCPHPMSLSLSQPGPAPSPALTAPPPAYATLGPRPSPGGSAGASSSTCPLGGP
T1 sequence (P51168 1-640 partner): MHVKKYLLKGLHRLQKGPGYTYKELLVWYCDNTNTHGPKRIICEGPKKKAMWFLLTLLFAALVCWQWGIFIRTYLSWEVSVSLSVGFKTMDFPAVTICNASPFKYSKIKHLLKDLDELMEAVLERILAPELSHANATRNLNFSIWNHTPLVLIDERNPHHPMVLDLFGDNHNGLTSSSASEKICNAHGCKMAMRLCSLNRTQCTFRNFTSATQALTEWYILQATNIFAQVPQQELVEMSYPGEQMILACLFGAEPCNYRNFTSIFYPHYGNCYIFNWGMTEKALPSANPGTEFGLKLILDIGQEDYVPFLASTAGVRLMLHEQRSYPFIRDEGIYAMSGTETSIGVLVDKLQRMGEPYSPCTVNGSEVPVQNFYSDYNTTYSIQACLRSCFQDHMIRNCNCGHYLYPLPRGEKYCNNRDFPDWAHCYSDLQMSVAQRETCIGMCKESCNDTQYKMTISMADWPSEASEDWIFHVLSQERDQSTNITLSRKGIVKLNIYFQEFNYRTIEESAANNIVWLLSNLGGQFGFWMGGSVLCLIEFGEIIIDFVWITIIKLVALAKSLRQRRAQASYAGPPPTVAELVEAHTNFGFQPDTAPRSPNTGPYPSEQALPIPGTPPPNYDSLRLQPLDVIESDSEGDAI
T1 sequence (P51170 1-649 partner): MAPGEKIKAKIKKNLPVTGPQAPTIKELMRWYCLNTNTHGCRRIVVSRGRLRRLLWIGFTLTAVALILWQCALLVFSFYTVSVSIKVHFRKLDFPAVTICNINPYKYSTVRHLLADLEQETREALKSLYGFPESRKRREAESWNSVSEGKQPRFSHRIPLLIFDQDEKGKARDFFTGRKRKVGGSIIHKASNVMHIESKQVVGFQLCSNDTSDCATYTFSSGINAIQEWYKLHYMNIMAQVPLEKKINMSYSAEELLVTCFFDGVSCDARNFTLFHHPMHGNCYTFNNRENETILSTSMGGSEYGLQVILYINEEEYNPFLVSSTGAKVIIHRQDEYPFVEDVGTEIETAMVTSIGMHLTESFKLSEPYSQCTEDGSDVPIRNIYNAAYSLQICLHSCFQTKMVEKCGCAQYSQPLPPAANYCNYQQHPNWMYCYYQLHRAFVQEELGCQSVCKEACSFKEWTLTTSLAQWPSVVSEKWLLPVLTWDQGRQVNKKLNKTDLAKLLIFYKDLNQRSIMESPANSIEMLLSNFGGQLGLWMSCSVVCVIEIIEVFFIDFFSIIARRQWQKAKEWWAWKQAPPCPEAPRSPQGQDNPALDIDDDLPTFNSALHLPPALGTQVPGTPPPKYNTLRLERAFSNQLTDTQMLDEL
Assay: Patch Clamp whole cell sodium current in deglycosylated (PNGase F) and untreated A549 cells
Assay type: cell-based
Conditions: peptide 240 nM, Eh = −100 mV
Experimental: […] After control recordings, 240 nM of the peptide of amino acid sequence SEQ ID NO:1 was added to the bath solution. […] Whole cell currents were recorded at Eh=−100 mV. The concentration of the peptides of amino acid sequence SEQ ID NO:1 to SEQ ID NO:7 in the bath solution was 240 nM.

Cyclo(CGQREAPAGAAAKPWYC) (disulfide 1-17) [SEQ ID NO: 7, reference compound]
whole cell sodium current (no pretreatment with PNGase F): No activity | whole cell sodium current (no pretreatment with PNGase F, listed as SEQ ID NO:7): no activity | whole cell sodium current (pre-treatment with PNGase F): No activity

C[C@@H]1NC(=O)CNC(=O)[C@H](CCC(=O)O)NC(=O)[C@@H]2CCCN2C(=O)[C@H]([C@@H](C)O)NC(=O)[C@H](CCC(=O)O)NC(=O)[C@H](CCCNC(=N)N)NC(=O)[C@H](CCC(N)=O)NC(=O)CNC(=O)[C@@H](N)CSSC[C@@H](C(=O)O)NC(=O)[C@H](Cc2ccc(O)cc2)NC(=O)[C@H](Cc2c[nH]c3ccccc23)NC(=O)[C@@H]2CCCN2C(=O)[C@H](CCCCN)NC(=O)[C@H](C)NC(=O)[C@H](CCC(=O)O)NC1=O [SEQ ID NO: 1]
whole cell sodium current (no pretreatment with PNGase F): 1073.3 ± 15.1 pA | whole cell sodium current (pre-treatment with PNGase F): 19.6 pA (n = 3)
